Literature values in publication PMC12687463.
Read-outs that look alike come from different tables or passages of the source.

Legend:
[1] = biological target: glucokinase regulatory protein (GKRP) (Homo sapiens) (UniProt Q14397)
[2] = biological target: glucokinase regulatory protein (GKRP) (Homo sapiens) (UniProt Q14397); remark: listed apart in the source
[3] = biological target: glucokinase regulatory protein (GKRP) (Homo sapiens) (UniProt Q14397); remark: listed apart in the source

Sequence of glucokinase (P35557 whole entry): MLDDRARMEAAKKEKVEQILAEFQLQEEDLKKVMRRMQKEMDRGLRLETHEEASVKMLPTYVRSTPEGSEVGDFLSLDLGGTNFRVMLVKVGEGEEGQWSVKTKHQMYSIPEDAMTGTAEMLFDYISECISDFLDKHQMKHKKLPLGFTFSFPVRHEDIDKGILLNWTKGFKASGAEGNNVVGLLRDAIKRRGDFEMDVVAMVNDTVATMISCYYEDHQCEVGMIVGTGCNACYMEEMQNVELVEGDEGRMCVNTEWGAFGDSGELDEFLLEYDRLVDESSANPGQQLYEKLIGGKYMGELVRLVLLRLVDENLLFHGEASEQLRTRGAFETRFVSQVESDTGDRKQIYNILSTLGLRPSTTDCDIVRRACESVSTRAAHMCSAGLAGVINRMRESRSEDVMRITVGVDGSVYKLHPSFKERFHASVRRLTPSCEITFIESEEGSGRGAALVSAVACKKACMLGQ
Sequence of UniProt Q14397 (Q14397 whole entry): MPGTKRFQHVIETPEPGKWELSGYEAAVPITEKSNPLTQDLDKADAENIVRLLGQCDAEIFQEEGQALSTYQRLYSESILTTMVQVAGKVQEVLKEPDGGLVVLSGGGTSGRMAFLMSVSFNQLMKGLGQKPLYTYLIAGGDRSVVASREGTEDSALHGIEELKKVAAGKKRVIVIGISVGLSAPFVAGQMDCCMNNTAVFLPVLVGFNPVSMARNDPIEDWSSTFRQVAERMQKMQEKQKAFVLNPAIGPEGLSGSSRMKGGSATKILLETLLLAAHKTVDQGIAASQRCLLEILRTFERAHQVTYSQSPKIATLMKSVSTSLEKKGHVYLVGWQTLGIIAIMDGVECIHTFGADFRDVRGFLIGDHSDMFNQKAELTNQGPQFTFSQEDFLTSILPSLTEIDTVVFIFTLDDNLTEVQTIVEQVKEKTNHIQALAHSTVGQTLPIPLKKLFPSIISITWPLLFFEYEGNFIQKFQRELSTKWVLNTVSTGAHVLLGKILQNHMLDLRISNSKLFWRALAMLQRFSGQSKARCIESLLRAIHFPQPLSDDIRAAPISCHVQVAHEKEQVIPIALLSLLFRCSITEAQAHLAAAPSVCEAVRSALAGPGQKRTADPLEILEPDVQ

glucokinase (from UniProt P35557)
Ki [1]: 984 nM | Ki [2]: 7000 nM | Ki [3]: 45 nM
